The record followed here is US7211395 (dated 2007).

For test [1], the target named is T1, chicken ovalbumin (chicken, UniProt P01012).
T1 chain: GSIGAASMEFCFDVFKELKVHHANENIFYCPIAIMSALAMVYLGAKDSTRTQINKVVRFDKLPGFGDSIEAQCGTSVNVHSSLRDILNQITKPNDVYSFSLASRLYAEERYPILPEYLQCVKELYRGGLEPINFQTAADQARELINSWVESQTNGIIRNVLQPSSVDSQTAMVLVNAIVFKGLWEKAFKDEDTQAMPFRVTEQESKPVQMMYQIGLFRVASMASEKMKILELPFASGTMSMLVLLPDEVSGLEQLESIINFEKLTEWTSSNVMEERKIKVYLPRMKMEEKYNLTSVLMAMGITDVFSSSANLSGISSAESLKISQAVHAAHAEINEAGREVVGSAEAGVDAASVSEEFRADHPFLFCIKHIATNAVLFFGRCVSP
Put plainly: FP, PBS pH 7.4.

The target of test [2] is T1, chicken ovalbumin. The test can be described thus: FP, pH 6.2, no NaCl.
The target in test [3] is T2, rabbit serum albumin (rabbit, UniProt P49065).
T2 chain: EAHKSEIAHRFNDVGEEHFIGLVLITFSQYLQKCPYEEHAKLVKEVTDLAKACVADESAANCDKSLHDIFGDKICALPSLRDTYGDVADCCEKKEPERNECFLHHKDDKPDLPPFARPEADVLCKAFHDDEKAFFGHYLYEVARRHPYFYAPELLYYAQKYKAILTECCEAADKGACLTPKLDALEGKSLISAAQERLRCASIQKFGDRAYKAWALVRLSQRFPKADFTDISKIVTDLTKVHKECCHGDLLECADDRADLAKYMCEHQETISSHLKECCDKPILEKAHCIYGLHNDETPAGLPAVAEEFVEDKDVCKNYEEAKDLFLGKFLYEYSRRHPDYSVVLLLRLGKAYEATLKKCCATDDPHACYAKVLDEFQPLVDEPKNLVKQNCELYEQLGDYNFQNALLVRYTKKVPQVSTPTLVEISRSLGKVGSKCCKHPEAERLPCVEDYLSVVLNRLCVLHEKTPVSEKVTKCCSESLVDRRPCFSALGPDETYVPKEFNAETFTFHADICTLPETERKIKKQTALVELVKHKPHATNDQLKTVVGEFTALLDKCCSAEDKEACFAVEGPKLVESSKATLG
The test can be described thus: FP, pH 6.2, no NaCl.

Test [4] addresses T3, pig serum albumin (pig, UniProt P08835).
T3 chain: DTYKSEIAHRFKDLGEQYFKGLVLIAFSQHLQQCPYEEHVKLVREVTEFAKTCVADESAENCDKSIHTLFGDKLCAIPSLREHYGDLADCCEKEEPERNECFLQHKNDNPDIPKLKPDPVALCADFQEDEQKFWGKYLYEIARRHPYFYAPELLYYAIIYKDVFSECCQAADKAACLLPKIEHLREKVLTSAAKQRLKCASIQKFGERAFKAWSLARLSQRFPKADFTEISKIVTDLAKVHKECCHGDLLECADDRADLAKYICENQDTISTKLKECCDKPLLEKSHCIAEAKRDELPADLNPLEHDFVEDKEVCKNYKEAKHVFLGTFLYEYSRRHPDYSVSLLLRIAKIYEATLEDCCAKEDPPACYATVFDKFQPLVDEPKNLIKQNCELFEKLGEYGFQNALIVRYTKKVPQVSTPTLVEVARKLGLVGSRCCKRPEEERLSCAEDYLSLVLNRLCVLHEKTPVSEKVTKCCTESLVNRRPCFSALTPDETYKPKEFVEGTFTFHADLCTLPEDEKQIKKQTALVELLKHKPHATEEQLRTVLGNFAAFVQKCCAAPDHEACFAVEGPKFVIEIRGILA
Put plainly: FP, pH 6.2, no NaCl.

The target of test [5] is T4, human serum albumin (HSA) (human, UniProt P02768). The test can be described thus: FP, pH 9.1, 0.14 M NaCl.
Test [6] has as its target T4, human serum albumin (HSA). Put plainly: FP, pH 6.2, 0.14 M NaCl.
In test [7] the target is T4, human serum albumin (HSA). The test can be described thus: FP, pH 7.4, 0.14 M NaCl.

Bridges are numbered along the chain shown (N, C = ends). [ ]: non-standard residue; d: D form. Ahx = NCCCCCC(=O)O

Consider Ac-AEGTGDFWFCDRIAWYPQHLCEFLDPEGGGK(fluorescein)-NH2 (disulfide 10-21 (inferred)) [DX-236], for which the Kd is > 200 µM in test [1], > 200 µM in test [2], 0.5 µM in test [3] and 0.5 µM in test [4].
Regarding Ac-AEGTGSNHGCWHFSCIWDAPE[Ahx]K(fluorescein)-NH2 (disulfide 10-15 (inferred)) [DX-298], the dissociation constant Kd in test [5] and in test [6] was > 200 µM each time.
Regarding Ac-AEGTGDDWDCVTRWANRDQQCWGPDPE[Ahx]K(fluorescein)-NH2 (disulfide 10-21 (inferred)) [DX-313], the dissociation constant (Kd) in test [7] is > 200 µM; in test [5], 90 µM; in test [6] it was 80 µM.

For orientation: Kd means the concentration at which binding is half-saturated. The low end stands for a tighter complex, the high end for a looser complex.
